The text below walks through data of PMC2897027 (Journal of molecular biology, 2010).

In test [1] the target is CTD MSK1 construct comprising residues 398-738 (human) (UniProt O75582). Nature of the test: SEC. For orientation: SEC sorts molecules by how far they enter the pores of the column.
The target of test [2] is CTD MSK1 construct comprising residues 414-750 (human) (UniProt O75582). Nature of the test: SEC.
Test [3] deals with "full length" C-terminal kinase domain of MSK1 (residues 414-802) (human, UniProt O75582 414-802). Description: SPR.
Chain of "full length" C-terminal kinase domain of MSK1 (residues 414-802) (O75582 414-802): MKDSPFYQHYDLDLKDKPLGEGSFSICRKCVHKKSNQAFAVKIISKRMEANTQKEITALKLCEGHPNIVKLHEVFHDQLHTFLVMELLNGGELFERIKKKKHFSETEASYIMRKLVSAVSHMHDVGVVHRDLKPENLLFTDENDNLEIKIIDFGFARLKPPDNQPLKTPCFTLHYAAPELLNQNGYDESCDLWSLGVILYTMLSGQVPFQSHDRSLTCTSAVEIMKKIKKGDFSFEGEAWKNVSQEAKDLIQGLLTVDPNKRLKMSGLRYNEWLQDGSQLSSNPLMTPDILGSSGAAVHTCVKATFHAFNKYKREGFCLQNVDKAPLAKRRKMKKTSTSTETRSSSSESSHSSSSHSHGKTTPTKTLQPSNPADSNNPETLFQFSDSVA

For the molecule “CTD MSK1 construct comprising residues 398-738 (from UniProt O75582 398-738) (domain or fragment)”, in test [1], the stoichiometry N (as a rule, the number of molecules, sites or subunits per partner or assembly) amounted to 2.

Molecule “CTD MSK1 construct comprising residues 414-750 (from UniProt O75582 414-750) (domain or fragment)” yielded a stoichiometry N in test [2] of 2.

B1: Full length human ERK1 (enzyme, UniProt P27361 1-379, looked up)
chain: MAAAAAQGGGGGEPRRTEGVGPGVPGEVEMVKGQPFDVGPRYTQLQYIGEGAYGMVSSAYDHVRKTRVAIKKISPFEHQTYCQRTLREIQILLRFRHENVIGIRDILRASTLEAMRDVYIVQDLMETDLYKLLKSQQLSNDHICYFLYQILRGLKYIHSANVLHRDLKPSNLLINTTCDLKICDFGLARIADPEHDHTGFLTEYVATRWYRAPEIMLNSKGYTKSIDIWSVGCILAEMLSNRPIFPGKHYLDQLNHILGILGSPSQEDLNCIINMKARNYLQSLPSKTKVAWAKLFPKSDSKALDLLDRMLTFNPNKRITVEEALAHPYLEQYYDPTDEPVAEEPFTFAMELDDLPKERLKELIFQETARFQPGVLEAP
Take B1: the Kd (in general, a measure of binding affinity in units of concentration) in test [3] turned out to be 74 ± 6 nM.
